The results in this text go back to patent US20250281631A1 (SICHUAN KELUN BIOTECH BIOPHARMACEUTICAL, published 2025).

The term EC50 denotes the midpoint of the concentration-response curve. Read a high EC50 as lower potency in that assay.

B1: ADC 100H7-A-07-A (antibody, human IgG1, kappa, V domains shown)
VH: EVQLVESGGGVVLPGRSLRLSCAASGFTFSRNAMHWVRQAPGKGLEWVAVIWHDGSNKYYGDSVKGRFTISRDNSKNTLYLQMDSLTAEDTAVYYCARDRGASDFRGQGTLVTVSS
VL: DIQMTQSPSTLSASVGDRVTITCRASQSINNWLAWYQQKPEKAPKLLIYKASSLESGVPSRFSGSGSGTEFTLTISSLQPDDFATYYCQQYNSYSLTFGGGTKVEIKR
modifications: drug-linker A-07-A on a cysteine sulfhydryl group; LC-DAR1 ratio 1.000; drug-linker A-07-A on cysteine sulfhydryl groups after TCEP reduction; mainly 3 per heavy chain (HC-DAR3 ratio 0.989)
B2: ADC 47A3-A-07-A (antibody, human IgG1, kappa, V domains shown)
VH: EVQLQESGPGLVKPSQTLSLTCAISGDSVSSSQSTWNWIRQSPSRGLEWLGRTFYRSRWYNDYALSMKSRITINPDTSKNQFSLQLNPVTPEDTAVYYCARDTYYYGSGGFDYWGQGSRVTVSS
VL: DIQMTQSPSTLSASVGDRVTITCRASQSLSRWLAWYQQKPEKAPKLLIYKASSLESGVPSRFSGSGSGTEFTLTISTLQPDDFATYYCQQYKNYYSFGQGTKLEIKR
modifications: drug-linker A-07-A on a cysteine sulfhydryl group; LC-DAR1 ratio 0.820; drug-linker A-07-A on cysteine sulfhydryl groups after TCEP reduction; HC-DAR3 ratio 0.760, HC-DAR0 ratio 0.222
B3: ADC 22B6-A-01 (antibody, human IgG1, kappa, V domains shown)
VH: EVHLVESGGGVVQPGRSLRLSCATSGFTFRSYGMHWVRQAPGKGLEWVAVIWYDGSNKYYADSVKGRFTISRDISKNTLYLQMNSLTAEDTAVYYCARYYYDSNGYYDAFDIWGQGTMVTVSS
VL: DIQLTQSPSFLSASVGDRVTITCRASQGISNYLAWYQQKPGKAPKLLIFAASTLQSGVPSRFSGSGSGAEFTLTISSLEPEDFATYYCQQLNSYPITFGQGTRLEIKR
modifications: drug-linker A-01 on a cysteine sulfhydryl group; LC-DAR1 ratio 0.990; drug-linker A-01 on cysteine sulfhydryl groups after TCEP reduction; mainly 3 per heavy chain (HC-DAR3 ratio 0.981)
B4: ADC 22B6-A-07-A-1 (antibody, human IgG1, kappa, V domains shown)
VH: B3 VH
VL: B3 VL
modifications: drug-linker A-07-A on a cysteine sulfhydryl group; mainly 1 per light chain (LC-DAR1 ratio 0.998); drug-linker A-07-A on cysteine sulfhydryl groups after TCEP reduction; mainly 3 per heavy chain (HC-DAR3 ratio 0.966)
B5: ADC 22B6-B-01 (antibody, human IgG1, kappa, V domains shown)
VH: B3 VH
VL: B3 VL
modifications: drug-linker B-01 on a cysteine sulfhydryl group; LC-DAR1 ratio 0.999; drug-linker B-01 on cysteine sulfhydryl groups after TCEP reduction; mainly 3 per heavy chain (HC-DAR3 ratio 0.933)
B6: U1-59 (HER3 control antibody) (antibody, V domains shown)
VH: QVQLQQWGAGLLKPSETLSLTCAVYGGSFSGYYWSWIRQPPGKGLEWIGEINHSGSTNYNPSLKSRVTISVETSKNQFSLKLSSVTAADTAVYYCARDKWTWYFDLWGRGTLVTVSS
VL: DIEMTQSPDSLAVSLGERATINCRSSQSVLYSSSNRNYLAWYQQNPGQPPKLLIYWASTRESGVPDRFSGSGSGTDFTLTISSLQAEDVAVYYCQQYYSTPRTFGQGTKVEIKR
B7: ADC 22B6-B-04-02 (antibody, human IgG1, kappa, V domains shown)
VH: B3 VH
VL: B3 VL
modifications: drug-linker B-04 on cysteine sulfhydryl groups after TCEP reduction (overall DAR 6.87; split between the chains not given)
notes: Antibody-drug conjugate of 22B6D2-hIgG1 with drug-linker B-04; also called 22B6-B-04-2
B8: 22B6D2-hIgG1 (antibody, V domains shown)
VH: B3 VH
VL: B3 VL

In the first experiment the target is T1, human epidermal growth factor receptor 3 (HER3) (human, UniProt P21860 20-1342).
T1 construct: whole, on cells; also called ErbB3; Erbb3
Kind of experiment: flow cytometry on KPL-4 cells. The protocol: (§1) The affinity of anti-human HER3 ADC to MDA-MB-453, NCI-H358, KPL-4, and A431 cells was detected by flow cytometry (Beckman, model Cytoflex).
(§2) Adherent MDA-MB-453, NCI-H358, KPL-4, A431 cells were digested with Tryple (manufacturer: Gibco) solution, counted, and an appropriate amount of the cells were taken, washed twice with 1×PBS, resuspended in 1% BSA in PBS solution, and then transferred to a 96-well sharp-bottom plate, 50 μl per well; candidate antibodies and drug conjugates thereof were diluted with 1% BSA in PBS solution by 3-fold or 2.5-fold serial dilution starting from 5 μg/mL, and then 50 μl of the diluted antibody or antibody-drug conjugate was added to the sharp-bottom plate containing the cells, and incubation was carried out at 4° C. for 40 minutes; the cells were washed twice with PBS, then added with 50 μl of diluted secondary antibody to each well, mixed, and incubated at 4° C. for 30 minutes; the cells were washed with PBS twice, then resuspended in 400 μl of PBS and detected by flow cytometry. Data processing: the average fluorescence signal values were exported, and then input into GraphPad Prism 6 software to calculate EC50.
On the technique in general: In flow cytometry, cells or beads pass a laser one at a time.
Take B1: the EC50 was 0.274 µg/mL.
In turn, B2 registered an EC50 of 0.125 µg/mL.
Still for that read-out and setting: to B3 belongs 0.0387 µg/mL; to B4, 0.0325 µg/mL.
Same read-out and setting: the same measure for B5: 0.0519 µg/mL.

A further experiment addresses T1, human epidermal growth factor receptor …. Kind of experiment: flow cytometry on NCI-H358 cells. The protocol:
as §1, §2
As to B1, a half-maximal effect (EC50) was put at 0.427 µg/mL.
B2 showed an EC50 of 0.158 µg/mL.
The same measure, in the same setting: to B3 belongs 0.0445 µg/mL; to B4, 0.0329 µg/mL; to B5, 0.0298 µg/mL.

A further experiment has the same target. The experiment in a line: flow cytometry on A431 cells. The protocol:
as §1, §2
As to B1, the concentration for a half-maximal effect (EC50) stood at 0.266 µg/mL.
The same measure, in the same setting: the same measure for B2: 0.0656 µg/mL; for B3: 0.0307 µg/mL; for B4: 0.0284 µg/mL.
Same read-out and setting: to B5 belongs 0.0328 µg/mL.

The next experiment shares this target. Kind of experiment: flow cytometry on MDA-MB-453 cells (second experiment, dilution from 15 ug/mL). The protocol:
The affinity of anti-human HER3 ADC to MDA-MB-453 cells was detected by flow cytometry (Beckman, model Cytoflex).
Adherent MDA-MB-453 cells were digested with Tryple (manufacturer: Gibco) solution, counted, and an appropriate amount of the cells were taken, washed twice with 1×PBS, resuspended in 1% BSA solution, and then transferred to a 96-well sharp-bottom plate, 50 μl per well; candidate antibodies and drug conjugates thereof were diluted with 1% BSA by 3-fold serial dilution starting from 15 μg/mL, and then 50 μl of the diluted antibody or antibody-drug conjugate was added to the sharp-bottom plate containing the cells, and incubation was carried out at 4° C. for 40 minutes; the cells were washed twice with PBS, then added with 50 μl of diluted secondary antibody to each well, mixed, and incubated at 4° C. for 30 minutes; the cells were washed with PBS twice, then resuspended in 200 μl of PBS and detected by flow cytometry. Data processing: the average fluorescence signal values were exported, and then input into GraphPad Prism 6 software to calculate EC50.
Molecule B6 came in with a 50% effective concentration (EC50) of 0.684 µg/mL.
On the same count and under the same terms, the same measure for B4: 0.147 µg/mL.
The same measure, in the same setting: the same measure for B7: 0.195 µg/mL; for B8: 0.0854 µg/mL.

A further experiment has the same target. The experiment in a line: cell-based or functional assay.
For the molecule B3, the “IC50 (nM), in vitro cytotoxicity (CCK8, 6 days) on HEK293T-hHER3 cells” value stood at 0.0014 nM.
Turning to B4, the “IC50 (nM), in vitro cytotoxicity (CCK8, 6 days) on HCC1569 cells” value was 15.6 nM; the “IC50 (nM), in vitro cytotoxicity (CCK8, 6 days) on HEK293T-hHER3 cells” value was 0.0038 nM; the “IC50 (nM), in vitro cytotoxicity (CCK8, 6 days) on MDA-MB-453 cells” value turned out to be 19 nM.

The next experiment shares this target. The experiment in a line: flow cytometry on MDA-MB-453 cells. The protocol: as §1, §2
Molecule B6 registered an EC50 of 0.426 µg/mL.
The same measure, in the same setting: the same measure for B4: 0.056 µg/mL.
B8 displayed a 50% effective concentration (EC50) of 0.0392 µg/mL.
